Test results reported in article PMC9512828.

B1: PTH1R-WT coupled to a C-terminal HaloTag (parathyroid hormone 1 receptor) [not stated] / β-arrestin1 WT C-terminally fused to Nanoluciferase [not stated] (parent)
chain 1: MGDKGTRVFKKASPNGKLTVYLGKRDFVDHIDLVDPVDGVVLVDPEYLKERRVYVTLTCAFRYGREDLDVLGLTFRKDLFVANVQSFPPAPEDKKPLTRLQERLIKKLGEHAYPFTFEIPPNLPCSVTLQPGPEDTGKACGVDYEVKAFCAENLEEKIHKRNSVRLVIRKVQYAPERPGPQPTAETTRQFLMSDKPLHLEASLDKEIYYHGEPISVNVHVTNNTNKTVKKIKISVRQYADICLFNTAQYKCPVAMEEADDTVAPSSTFCKVYTLTPFLANNREKRGLALDGKLKHEDTNLASSTLLREGANREILGIIVSYKVKVKLVVSRGGLLGDLASSDVAVELPFTLMHPKPKEEPPHREVPENETPVDTNLIELDTNDDDIVFEDFARQRLKGMKDDKEEEEDGTGSPQLNNR
chain 2: DADDVMTKEEQIFLLHRAQAQCEKRLKEVLQRPASIMESDKGWTSASTSGKPRKDKASGKLYPESEEDKEAPTGSRYRGRPCLPEWDHILCWPLGAPGEVVAVPCPDYIYDFNHKGHAYRRCDRNGSWELVPGHNRTWANYSECVKFLTNETREREVFDRLGMIYTVGYSVSLASLTVAVLILAYFRRLHCTRNYIHMHLFLSFMLRAVSIFVKDAVLYSGATLDEAERLTEEELRAIAQAPPPPATAAAGYAGCRVAVTFFLYFLATNYYWILVEGLYLHSLIFMAFFSEKKYLWGFTVFGWGLPAVFVAVWVSVRATLANTGCWDLSSGNKKWIIQVPILASIVLNFILFINIVRVLATKLRETNAGRCDTRQQYRKLLKSTLVLMPLFGVHYIVFMATPYTEVSGTLWQVQMHYEMLFNSFQGFFVAIIYCFCNGEVQAEIKKSWSRWTLALDFKRKARSGSSSYSYGPMVSHTSVTNVGPRVGLGLPLSPRLLPTATTNGHPQLPGHAKPGTPALETLETTPPAMAAPKDDGFLNGSCSGLDEEASGPERPPALLQEEWETVM
B2: PTH1R-WT coupled to a C-terminal HaloTag (parathyroid hormone 1 receptor) [not stated] / β-arrestin2-dFLR (finger-loop region Y64 to K78 deleted) C-terminally fused to Nanoluciferase [not stated] (parent)
chain 1: MGEKPGTRVFKKSSPNCKLTVYLGKRDFVDHLDKVDPVDGVVLVDPDYLKDRKVFVTLTCAFRDLFIANYQAFPPTPNPPRPPTRLQERLLRKLGQHAHPFFFTIPQNLPCSVTLQPGPEDTGKACGVDFEIRAFCAKSLEEKSHKRNSVRLVIRKVQFAPEKPGPQPSAETTRHFLMSDRSLHLEASLDKELYYHGEPLNVNVHVTNNSTKTVKKIKVSVRQYADICLFSTAQYKCPVAQVEQDDQVSPSSTFCKVYTITPLLSNNREKRGLALDGKLKHEDTNLASSTIVKEGANKEVLGILVSYRVKVKLVVSRGGDVSVELPFVLMHPKPHDHIALPRPQSAATHPPTLLPSAVPETDAPVDTNLIEFETNYATDDDIVFEDFARLRLKGLKDEDYDDQFC
chain 2: B1 chain 2
B3: PTH1R-WT coupled to a C-terminal HaloTag (parathyroid hormone 1 receptor) [not stated] / β-arrestin2 WT C-terminally fused to Nanoluciferase [not stated] (parent)
chain 1: MGEKPGTRVFKKSSPNCKLTVYLGKRDFVDHLDKVDPVDGVVLVDPDYLKDRKVFVTLTCAFRYGREDLDVLGLSFRKDLFIANYQAFPPTPNPPRPPTRLQERLLRKLGQHAHPFFFTIPQNLPCSVTLQPGPEDTGKACGVDFEIRAFCAKSLEEKSHKRNSVRLVIRKVQFAPEKPGPQPSAETTRHFLMSDRSLHLEASLDKELYYHGEPLNVNVHVTNNSTKTVKKIKVSVRQYADICLFSTAQYKCPVAQVEQDDQVSPSSTFCKVYTITPLLSNNREKRGLALDGKLKHEDTNLASSTIVKEGANKEVLGILVSYRVKVKLVVSRGGDVSVELPFVLMHPKPHDHIALPRPQSAATHPPTLLPSAVPETDAPVDTNLIEFETNYATDDDIVFEDFARLRLKGLKDEDYDDQFC
chain 2: B1 chain 2
B4: PTH1R-WT coupled to a C-terminal HaloTag (parathyroid hormone 1 receptor) [not stated] / β-arrestin1-dFLR (finger-loop region Y63 to K77 deleted) C-terminally fused to Nanoluciferase [not stated] (parent)
chain 1: MGDKGTRVFKKASPNGKLTVYLGKRDFVDHIDLVDPVDGVVLVDPEYLKERRVYVTLTCAFRDLFVANVQSFPPAPEDKKPLTRLQERLIKKLGEHAYPFTFEIPPNLPCSVTLQPGPEDTGKACGVDYEVKAFCAENLEEKIHKRNSVRLVIRKVQYAPERPGPQPTAETTRQFLMSDKPLHLEASLDKEIYYHGEPISVNVHVTNNTNKTVKKIKISVRQYADICLFNTAQYKCPVAMEEADDTVAPSSTFCKVYTLTPFLANNREKRGLALDGKLKHEDTNLASSTLLREGANREILGIIVSYKVKVKLVVSRGGLLGDLASSDVAVELPFTLMHPKPKEEPPHREVPENETPVDTNLIELDTNDDDIVFEDFARQRLKGMKDDKEEEEDGTGSPQLNNR
chain 2: B1 chain 2

Variants of: B1
Test: NanoBRET recruitment assay in living cells
Details: with β-arrestin1 WT C-terminally fused to Nanoluciferase; HEK-WT + EV; point at the highest PTH(1-34) concentration (about 3 µM); parent: 5.9; read off a plot

| Variant | response [fold change] |
| --- | --- |
| chain 2 S463A S465A S466A S467A S469A | 5.8 |
| chain 2 S475A T477A S478A T480A | 2.9 |

Same assay, conditions: with β-arrestin1 WT C-terminally fused to Nanoluciferase; HEK-WT cells; point at the highest PTH(1-34) concentration (about 3 µM); parent: 5.9; read off a plot

| Variant | response [fold change] |
| --- | --- |
| chain 2 S463A S465A S466A S467A S469A | 5.9 |
| chain 2 S475A T477A S478A T480A | 2.9 |

Same assay, conditions: with β-arrestin1 WT C-terminally fused to Nanoluciferase; ΔQ-GRK + EV; point at the highest PTH(1-34) concentration (about 3 µM); parent: 1.4; read off a plot

| Variant | response [fold change] |
| --- | --- |
| chain 2 S463A S465A S466A S467A S469A | 1.7 |
| chain 2 S475A T477A S478A T480A | 2 |

Same assay, conditions: with β-arrestin1 WT C-terminally fused to Nanoluciferase; ΔQ-GRK + GRK2; point at the highest PTH(1-34) concentration (about 3 µM); parent: 5.3; read off a plot

| Variant | response [fold change] |
| --- | --- |
| chain 2 S463A S465A S466A S467A S469A | 6.3 |
| chain 2 S475A T477A S478A T480A | 2.7 |

Variants of: B2
Test: NanoBRET recruitment assay in living cells
Details: with β-arrestin2-dFLR (finger-loop region Y64 to K78 deleted) C-terminally fused to Nanoluciferase; HEK-WT + EV; point at the highest PTH(1-34) concentration (about 3 µM); partner is β-arrestin2-dFLR; parent: 1.4; read off a plot

| Variant | response [fold change] |
| --- | --- |
| chain 2 S463A S465A S466A S467A S469A | 1.4 |
| chain 2 S475A T477A S478A T480A | 0.95 |

Same assay, conditions: with β-arrestin2-dFLR (finger-loop region Y64 to K78 deleted) C-terminally fused to Nanoluciferase; ΔQ-GRK + EV; point at the highest PTH(1-34) concentration (about 3 µM); partner is β-arrestin2-dFLR; parent: 1; read off a plot

| Variant | response [fold change] |
| --- | --- |
| chain 2 S463A S465A S466A S467A S469A | 1 |
| chain 2 S475A T477A S478A T480A | 0.95 |

Same assay, conditions: with β-arrestin2-dFLR (finger-loop region Y64 to K78 deleted) C-terminally fused to Nanoluciferase; ΔQ-GRK + GRK2; point at the highest PTH(1-34) concentration (about 3 µM); partner is β-arrestin2-dFLR; parent: 1.3; read off a plot

| Variant | response [fold change] |
| --- | --- |
| chain 2 S463A S465A S466A S467A S469A | 1.3 |
| chain 2 S475A T477A S478A T480A | 0.95 |

Variants of: B3
Test: NanoBRET recruitment assay in living cells
Details: with β-arrestin2 WT C-terminally fused to Nanoluciferase; HEK-WT + EV; point at the highest PTH(1-34) concentration (about 3 µM); parent: 7.5; read off a plot

| Variant | response [fold change] |
| --- | --- |
| chain 2 S463A S465A S466A S467A S469A | 6 |
| chain 2 S475A T477A S478A T480A | 3.4 |

Same assay, conditions: with β-arrestin2 WT C-terminally fused to Nanoluciferase; HEK-WT cells; point at the highest PTH(1-34) concentration (about 3 µM); parent: 7.3; read off a plot

| Variant | response [fold change] |
| --- | --- |
| chain 2 S463A S465A S466A S467A S469A | 6 |
| chain 2 S475A T477A S478A T480A | 3.4 |

Same assay, conditions: with β-arrestin2 WT C-terminally fused to Nanoluciferase; ΔQ-GRK + EV; point at the highest PTH(1-34) concentration (about 3 µM); parent: 1.7; read off a plot

| Variant | response [fold change] |
| --- | --- |
| chain 2 S463A S465A S466A S467A S469A | 1.8 |
| chain 2 S475A T477A S478A T480A | 1.9 |

Same assay, conditions: with β-arrestin2 WT C-terminally fused to Nanoluciferase; ΔQ-GRK + GRK2; point at the highest PTH(1-34) concentration (about 3 µM); parent: 5; read off a plot

| Variant | response [fold change] |
| --- | --- |
| chain 2 S463A S465A S466A S467A S469A | 4.8 |
| chain 2 S475A T477A S478A T480A | 3.2 |

Variants of: B4
Test: NanoBRET recruitment assay in living cells
Details: with β-arrestin1-dFLR (finger-loop region Y63 to K77 deleted) C-terminally fused to Nanoluciferase; HEK-WT + EV; point at the highest PTH(1-34) concentration (about 3 µM); partner is β-arrestin1-dFLR; parent: 2.8; read off a plot

| Variant | response [fold change] |
| --- | --- |
| chain 2 S463A S465A S466A S467A S469A | 2.6 |
| chain 2 S475A T477A S478A T480A | 1.1 |

Same assay, conditions: with β-arrestin1-dFLR (finger-loop region Y63 to K77 deleted) C-terminally fused to Nanoluciferase; ΔQ-GRK + EV; point at the highest PTH(1-34) concentration (about 3 µM); partner is β-arrestin1-dFLR; parent: 1; read off a plot

| Variant | response [fold change] |
| --- | --- |
| chain 2 S463A S465A S466A S467A S469A | 1 |
| chain 2 S475A T477A S478A T480A | 1 |

Same assay, conditions: with β-arrestin1-dFLR (finger-loop region Y63 to K77 deleted) C-terminally fused to Nanoluciferase; ΔQ-GRK + GRK2; point at the highest PTH(1-34) concentration (about 3 µM); partner is β-arrestin1-dFLR; parent: 2.3; read off a plot

| Variant | response [fold change] |
| --- | --- |
| chain 2 S463A S465A S466A S467A S469A | 2.1 |
| chain 2 S475A T477A S478A T480A | 1.1 |
